B1: RsbS (Bacillus subtilis), full length, residues 1-121, tag removed (natural protein, Bacillus subtilis strain 168, UniProt P42410 1-121, looked up)
chain: MRHPKIPILKLYNCLLVSIQWELDDQTALTFQEDLLNKIYETGANGVVIDLTSVDMIDSFIAKVLGDVITMSKLMGAKVVLTGIQPAVAVTLIELGIALEEIETALDLEQGLETLKRELGE
modifications: phosphoserine at 59 (seen in the crystal structure and by peptide mass fingerprinting; likely phosphorylated during expression in E. coli)
notes: RsbS, Bacillus subtilis strain 168 (ATCC 23857), full length, residues 1-121; only a STAS domain; Dimer in solution by SEC-MALS; 60 monomers form an icosahedron in the crystal; The model holds residues 4-119 (chain A) or 5-119 (other chains); A selenomethionine-labelled form was used for phasing; also called native RsbS; Bs RsbS; source: E. coli BL21 Star (DE3), purified (IMAC, TEV cleavage, …)
B2: RsbS S59A mutant (natural protein, Bacillus subtilis)
chain: MRHPKIPILKLYNCLLVSIQWELDDQTALTFQEDLLNKIYETGANGVVIDLTSVDMIDAFIAKVLGDVITMSKLMGAKVVLTGIQPAVAVTLIELGIALEEIETALDLEQGLETLKRELGE
notes: RsbS, Bacillus subtilis, with S59A, which restricts phosphorylation; the construct is not described
B3: RsbRA (Bacillus subtilis), full length, residues 1-274, native (pET-22b), of the RsbRA-RsbS complex (natural protein, Bacillus subtilis strain 168, UniProt P42409 1-274, looked up)
chain: MMSNQTVYQFIAENQNELLQLWTDTLKELSEQESYQLTDQVYENISKEYIDILLLSVKDENAAESQISELALRAVQIGLSMKFLATALAEFWKRLYTKMNDKRLPDQESTELIWQIDRFFSPINTEIFNQYSISWEKTVSLQKIALQELSAPLIPVFENITVMPLVGTIDTERAKRIMENLLNGVVKHRSQVVLIDITGVPVVDTMVAHHIIQASEAVRLVGAKCLLAGIRPEIAQTIVNLGIDLSQVITKNTLQKGIQTALEMTDRKIVSLGE
notes: RsbRA, Bacillus subtilis strain 168 (ATCC 23857), full length, residues 1-274; N-terminal nonheme globin domain and C-terminal STAS domain; also called native RsbRA; source: E. coli BL21 Star (DE3), co-purified with 6xHis-thioredoxin-RsbS (IMAC, TEV cleavage, SEC)

Experiments:
[1] = target: B3; experiment: cryo-EM structure; RsbRA-RsbS complex at 0.5 mg/ml in 20 mM HEPES pH 7.5, 50 mM NaCl, 0.2 mM TCEP, 5% glycerol; single-particle reconstruction with C1, D2 or I restraints; conditions: both partners purified
[2] = target: the molecule itself; experiment: crystal structure; RsbS 10 mg/ml; micro-batch at 20 C; 35% MPD, 100 mM MES/sodium hydroxide pH 6.0, 200 mM lithium sulfate; space group I23, five monomers in the asymmetric unit
[3] = target: the molecule itself; experiment: SEC-MALS; 200 ul of 1 mg/ml RsbS on a Superdex 200 analytical column; miniDAWN TREOS II MALS and Optilab rEX detectors
[4] = target: the molecule itself; experiment: cryo-EM structure; RsbRA-RsbS complex at 0.5 mg/ml in 20 mM HEPES pH 7.5, 50 mM NaCl, 0.2 mM TCEP, 5% glycerol; single-particle reconstruction with C1, D2 or I restraints

| Binder | binding result [1] | stoichiometry N [2] | stoichiometry N [3] | binding result [4] |
| --- | --- | --- | --- | --- |
| B1 | binds | 60 | 2 |  |
| B2 |  |  | 2 |  |
| B3 |  |  |  | binds |
